Values of other authors in PMC3417354.

Biological target: PCNA (Homo sapiens) (UniProt P12004)
Sequence (P12004 whole entry): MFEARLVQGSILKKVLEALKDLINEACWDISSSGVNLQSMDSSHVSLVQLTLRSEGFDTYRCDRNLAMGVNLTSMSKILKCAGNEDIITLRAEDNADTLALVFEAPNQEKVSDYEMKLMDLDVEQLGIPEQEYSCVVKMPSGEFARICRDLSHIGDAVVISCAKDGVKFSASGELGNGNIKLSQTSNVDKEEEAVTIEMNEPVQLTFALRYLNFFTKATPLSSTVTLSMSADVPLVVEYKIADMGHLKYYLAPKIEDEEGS

Chain of p21 peptide 141-160 (P38936 141-160): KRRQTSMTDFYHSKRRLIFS

**Q.** For “p21 peptide 141-160 (from UniProt P38936)”, which Kd is on record?
**A.** Its Kd is 0.088 µM.
